Experimental findings from patent publication US20060039904A1 are described below.

Assay [1] addresses FcγRIIIA-streptavidin fusion protein (tetramer) (human; Streptomyces avidinii) (UniProt P08637). Description: ELISA: antibody captured on protein A/G, FcγRIIIA tetramer (streptavidin fusion), biotin-HRP, OD450. A general note: In an ELISA, binding on a coated surface is turned into a signal by an enzyme label.
Assay [2] addresses FcγRIIIA (soluble receptor used as analyte in the BIAcore runs) (human) (UniProt P08637). Description: BIAcore run 2, IgG immobilized, soluble FcγRIIIA, Scatchard plot. On the technique in general: In SPR one partner is held on a chip, and binding of the other changes the refractive index at the surface.
For assay [3], the target named is FcγRIIB-streptavidin fusion protein (tetramer) (human; Streptomyces avidinii) (UniProt P31994). Description: ELISA: antibody captured on protein A/G, FcγRIIB-streptavidin, biotin-HRP, OD450.
Assay [4] concerns the target FcγRIIIA (soluble receptor used as analyte in the BIAcore runs) (human) (UniProt P08637). Description: BIAcore run 1, IgG immobilized, soluble FcγRIIIA, Scatchard plot.
For assay [5] the target is unchanged. The experiment in a line: BIAcore run 1, IgG immobilized, soluble FcγRIIIA, steady-state isotherm.
For assay [6] the target is unchanged. Description: BIAcore run 2, IgG immobilized, soluble FcγRIIIA, steady-state isotherm.

The term EC50 (read off the curve) denotes the concentration needed to bring the measured effect to its halfway point. Read a high EC50 (read off the curve) as weaker potency. Broadly, the Kd is a measure of binding affinity in units of concentration. High values mean a looser complex, low ones a tighter complex.

“And” between values parts separate entries of the source, which are not always exact repeats. Identical values can stand only once.

Sequence of FcγRIIIA (soluble receptor used as analyte in the BIAcore runs) (human) (P08637 17-208): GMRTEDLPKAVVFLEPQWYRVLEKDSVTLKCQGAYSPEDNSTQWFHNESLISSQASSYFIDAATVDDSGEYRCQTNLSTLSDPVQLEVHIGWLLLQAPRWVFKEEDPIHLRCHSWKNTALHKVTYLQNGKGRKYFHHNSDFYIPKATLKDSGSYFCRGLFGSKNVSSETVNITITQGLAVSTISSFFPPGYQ

As to “3F2-1M (3F2 Fc variant I332E, IgG1) (from UniProt P01857 1-330) (antibody)”, in assay [1], the EC50 (read off the curve) worked out at 0.05 µg/mL.
For “3F2-3M (3F2 Fc variant S239D/A330L/I332E, IgG1) (from UniProt P01857 1-330) (antibody)”, in assay [1], the EC50 (read off the curve) was found to be 0.05 µg/mL.
For Vitaxin® (wild type IgG1 antibody), the Kd is 7.6 µM in assay [2], 3.26 µM in assay [4], 3.47 µM in assay [5] and 8.9 µM in assay [6]. In addition, in assay [3], the EC50 (read off the curve) is 0.4 µg/mL and 0.3 µg/mL.
For “Vitaxin®-1M (Vitaxin® Fc variant I332E, IgG1) (from UniProt P01857 1-330) (antibody)”, the EC50 (read off the curve) in assay [3] is 0.3 µg/mL.
